Measurements published in patent US20170002055A1, “Novel peptides and combination of peptides for use in immunotherapy against ovarian cancer and other cancers” (immatics biotechnologies GmbH, priority 2015, published 2017).

The substances below were run against HLA-A*02:01 (Homo sapiens, UniProt P04439, D140Y/D185E/D98H/E176V/E277Q/G131W/G231S/I119V/I121R/I166T/I218V/L300P/L318F/N151K/N90K/P208A/P217A/Q86G/Q94H/R138H/R169H/T345S) (assay: MHC binding assay (UV-ligand exchange, β2m ELISA, peptide exchange yield)). Conditions: MHC class I binding score; binding to HLA-A*02:01 ranged by peptide exchange yield (UV-ligand exchange, β2m ELISA).
Source text: Candidate peptides for T cell based therapies according to the present invention were further tested for their MHC binding capacity (affinity). The individual peptide-MHC complexes were produced by UV-ligand exchange, where a UV-sensitive peptide is cleaved upon UV-irradiation, and exchanged with the peptide of interest as analyzed. Only peptide candidates that can effectively bind and stabilize the peptide-receptive MHC molecules prevent dissociation of the MHC complexes. To determine the yield of the exchange reaction, an ELISA was performed based on the detection of the light chain (β2m) of stabilized MHC complexes. The assay was performed as generally described in Rodenko et al. (Rodenko et al., 2006).
96 well MAXISorp plates (NUNC) were coated over night with 2 ug/ml streptavidin in PBS at room temperature, washed 4× and blocked for 1h at 37° C. in 2% BSA containing blocking buffer. […] Peptide-MHC monomers of the UV-exchange reaction were diluted 100 fold in blocking buffer. Samples were incubated for 1h at 37° C., washed four times, incubated with 2 ug/ml HRP conjugated anti-β2m for 1h at 37° C., washed again and detected with TMB solution that is stopped with […]. Absorption was measured at 450 nm. Candidate peptides that show a high exchange yield (preferably higher than 50%, most preferred higher than 75%) are generally preferred for a generation and production of antibodies or fragments thereof, and/or T cell receptors or fragments thereof, as they show sufficient avidity to the MHC molecules and prevent dissociation of the MHC complexes.

Peptide exchange | Substance
“+++” (≧50 = +++) | 250 (ALSEEGLLVYL; listed as Homo sapiens) [compound 250]
“++” (≧20% = ++) | 233 (VLSETLYEL; listed as Homo sapiens) [compound 233]
“+++” (≧50 = +++) | 136 (YLADPSNLFVV; listed as Homo sapiens) [compound 136]
“++++” (≧75% = ++++) | 552 (GLLDLPFRVGV; listed as Homo sapiens) [compound 552]
“++++” (≧75% = ++++) | 237 (ALLEASGTLLL; listed as Homo sapiens) [compound 237]
“+++” (≧50 = +++) | 57 (TLAELQPPVQL; listed as Homo sapiens) [compound 57]
“+++” (≧50 = +++) | 313 (VLFDDELLMV; listed as Homo sapiens) [compound 313]
“+++” (≧50 = +++) | 558 (GLLENIPRV; listed as Homo sapiens) [compound 558]
“+++” (≧50 = +++) | 46 (ILTEENIHL; listed as Homo sapiens) [compound 46]
“+++” (≧50 = +++) | 399 (YLFEPLYHV; listed as Homo sapiens) [compound 399]
“+++” (≧50 = +++) | 78 (SLFSSLEPQIQPV; listed as Homo sapiens) [compound 78]
“+++” (≧50 = +++) | 175 (YLFENISQL; listed as Homo sapiens) [compound 175]
“+++” (≧50 = +++) | 301 (FLVEDLVDSL; listed as Homo sapiens) [compound 301]
“++” (≧20% = ++) | 374 (FLLQQHLISA; listed as Homo sapiens) [compound 374]
“++++” (≧75% = ++++) | 126 (VLAYFLPEA; listed as Homo sapiens) [compound 126]
“+++” (≧50 = +++) | 587 (VMNDRLYAI; listed as Homo sapiens) [compound 587]
“+++” (≧50 = +++) | 331 (KVDTVWVNV; listed as Homo sapiens) [compound 331]
“+++” (≧50 = +++) | 573 (ILVANAIVGV; listed as Homo sapiens) [compound 573]
“++” (≧20% = ++) | 451 (LLLLDTVTMQV; listed as Homo sapiens) [compound 451]
“++” (≧20% = ++) | 21 (VLDELDMEL; listed as Homo sapiens) [compound 21]
“+++” (≧50 = +++) | 509 (FLFDTKPLIV; listed as Homo sapiens) [compound 509]
“++” (≧20% = ++) | 197 (ALGPEGGRV; listed as Homo sapiens) [compound 197]
“+++” (≧50 = +++) | 314 (ALIAEGIALV; listed as Homo sapiens) [compound 314]
“+++” (≧50 = +++) | 343 (SLLEVNEESTV; listed as Homo sapiens) [compound 343]

Peptide exchange | Substance
“++” (≧20% = ++) | 131 (FVPPVTVFPSL; listed as Homo sapiens) [compound 131]
“+++” (≧50 = +++) | 557 (KLYDDMIRL; listed as Homo sapiens) [compound 557]
“+++” (≧50 = +++) | 427 (ALLPLSPYL; listed as Homo sapiens) [compound 427]
“+++” (≧50 = +++) | 16 (VLFQGQASL; listed as Homo sapiens) [compound 16]
“++++” (≧75% = ++++) | 109 (IILSILEQA; listed as Homo sapiens) [compound 109]
“+++” (≧50 = +++) | 59 (IMEDIILTL; listed as Homo sapiens) [compound 59]
“+++” (≧50 = +++) | 468 (YLRSVGDGETV; listed as Homo sapiens) [compound 468]
“+++” (≧50 = +++) | 125 (VQIHQVAQV; listed as Homo sapiens) [compound 125]
“+++” (≧50 = +++) | 190 (FLSSLTETI; listed as Homo sapiens) [compound 190]
“++” (≧20% = ++) | 458 (SLIDKLYNI; listed as Homo sapiens) [compound 458]
“++” (≧20% = ++) | 127 (KIGDEPPKV; listed as Homo sapiens) [compound 127]
“+++” (≧50 = +++) | 478 (YLLHEKLNL; listed as Homo sapiens) [compound 478]
“+++” (≧50 = +++) | 54 (SLLEQGKEPWMV; listed as Homo sapiens) [compound 54]
“+++” (≧50 = +++) | 224 (TLIDAQWVL; listed as Homo sapiens) [compound 224]
“++++” (≧75% = ++++) | 387 (ALFQATAEV; listed as Homo sapiens) [compound 387]
“++++” (≧75% = ++++) | 358 (ALDEYTSEL; listed as Homo sapiens) [compound 358]
“+++” (≧50 = +++) | 475 (LLLNEEALAQI; listed as Homo sapiens) [compound 475]
“++” (≧20% = ++) | 47 (ILLSVPLLVV; listed as Homo sapiens) [compound 47]
“+++” (≧50 = +++) | 366 (RLLDMGETDLML; listed as Homo sapiens) [compound 366]
“++” (≧20% = ++) | 277 (LLPPLESLATV; listed as Homo sapiens) [compound 277]
“+++” (≧50 = +++) | 14 (AAYGGLNEKSFV; listed as Homo sapiens) [compound 14]
“+++” (≧50 = +++) | 266 (KITDTLIHL; listed as Homo sapiens) [compound 266]
“++” (≧20% = ++) | 176 (YLMEGSYNKVFL; listed as Homo sapiens) [compound 176]
“++++” (≧75% = ++++) | 303 (AILPQLFMV; listed as Homo sapiens) [compound 303]

Peptide exchange | Substance
“++” (≧20% = ++) | 566 (VIADGGIQNV; listed as Homo sapiens) [compound 566]
“+++” (≧50 = +++) | 543 (GLLPTPITQQASL; listed as Homo sapiens) [compound 543]
“++” (≧20% = ++) | 491 (GLNDRSDAV; listed as Homo sapiens) [compound 491]
“+++” (≧50 = +++) | 139 (SVMEVNSGIYRV; listed as Homo sapiens) [compound 139]
“+++” (≧50 = +++) | 322 (TLMTSLPAL; listed as Homo sapiens) [compound 322]
“+++” (≧50 = +++) | 383 (ALLELENSVTL; listed as Homo sapiens) [compound 383]
“+++” (≧50 = +++) | 82 (FLSSVTYNL; listed as Homo sapiens) [compound 82]
“++” (≧20% = ++) | 403 (KLYDRILRV; listed as Homo sapiens) [compound 403]
“++” (≧20% = ++) | 385 (SLLEQGLVEA; listed as Homo sapiens) [compound 385]
“+++” (≧50 = +++) | 162 (YQQAQVPSV; listed as Homo sapiens) [compound 162]
“+++” (≧50 = +++) | 71 (GILARIASV; listed as Homo sapiens) [compound 71]
“+++” (≧50 = +++) | 286 (YLFPGIPEL; listed as Homo sapiens) [compound 286]
“+++” (≧50 = +++) | 1 (SLMEPPAVLLL; listed as Homo sapiens) [compound 1]
“++” (≧20% = ++) | 376 (AMFESSQNVLL; listed as Homo sapiens) [compound 376]
“++” (≧20% = ++) | 24 (SLSDGLEEV; listed as Homo sapiens) [compound 24]
“+++” (≧50 = +++) | 206 (VLQEGKLQKLAQL; listed as Homo sapiens) [compound 206]
“++” (≧20% = ++) | 63 (YLLPSGGSVTL; listed as Homo sapiens) [compound 63]
“+++” (≧50 = +++) | 367 (SLQNHNHQL; listed as Homo sapiens) [compound 367]
“++” (≧20% = ++) | 80 (FLYDNLVESL; listed as Homo sapiens) [compound 80]
“++” (≧20% = ++) | 115 (AIAGAGILYGV; listed as Homo sapiens) [compound 115]
“++++” (≧75% = ++++) | 611 (YLLDDGTLVV; listed as Homo sapiens) [compound 611]
“+++” (≧50 = +++) | 205 (SLYPGTETMGL; listed as Homo sapiens) [compound 205]
“++” (≧20% = ++) | 363 (KVLDVSDLESV; listed as Homo sapiens) [compound 363]
